Measured values published in doi:10.1101/303024 (bioRxiv, 2018).

Molecular target: T1, Cdc24-6xHis (full-length, wild type) (S. cerevisiae (budding yeast), UniProt P11433 1-854)
T1 sequence: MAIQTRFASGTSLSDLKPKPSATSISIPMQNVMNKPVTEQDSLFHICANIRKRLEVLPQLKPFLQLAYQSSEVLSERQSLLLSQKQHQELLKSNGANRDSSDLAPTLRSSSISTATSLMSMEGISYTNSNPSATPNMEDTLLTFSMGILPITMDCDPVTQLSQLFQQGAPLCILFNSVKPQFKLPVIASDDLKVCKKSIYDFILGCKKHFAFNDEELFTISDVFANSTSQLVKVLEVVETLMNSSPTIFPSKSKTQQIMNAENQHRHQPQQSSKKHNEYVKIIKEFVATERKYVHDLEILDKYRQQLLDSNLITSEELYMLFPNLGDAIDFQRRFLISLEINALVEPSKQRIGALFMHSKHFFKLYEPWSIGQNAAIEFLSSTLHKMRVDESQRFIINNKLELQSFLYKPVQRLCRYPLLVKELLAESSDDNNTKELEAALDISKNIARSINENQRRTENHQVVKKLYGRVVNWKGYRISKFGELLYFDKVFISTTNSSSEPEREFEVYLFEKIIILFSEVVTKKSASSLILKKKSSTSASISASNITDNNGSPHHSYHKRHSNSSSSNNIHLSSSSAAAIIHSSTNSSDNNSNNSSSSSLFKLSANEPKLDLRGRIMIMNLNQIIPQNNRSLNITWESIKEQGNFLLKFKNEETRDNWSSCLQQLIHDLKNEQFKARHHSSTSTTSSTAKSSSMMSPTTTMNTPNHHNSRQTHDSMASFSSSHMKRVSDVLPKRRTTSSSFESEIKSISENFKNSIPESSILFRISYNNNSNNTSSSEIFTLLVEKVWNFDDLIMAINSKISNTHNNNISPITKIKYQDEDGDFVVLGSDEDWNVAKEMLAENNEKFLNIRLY
Assay: liposome floatation

B1: Bem1 (full-length, wild type) (natural protein)
chain: MLKNFKLSKRDSNGSKGRITSADISTPSHDNGSVIKHIKTVPVRYLSSSSTPVKSQRDSSPKNRHNSKDITSPEKVIKAKYSYQAQTSKELSFMEGEFFYVSGDEKDWYKASNPSTGKEGVVPKTYFEVFDRTKPSSVNGSNSSSRKVTNDSLNMGSLYAIVLYDFKAEKADELTTYVGENLFICAHHNCEWFIAKPIGRLGGPGLVPVGFVSIIDIATGYATGNDVIEDIKSVNLPTVQEWKSNIARYKASNISLGSVEQQQQQSITKPQNKSAKLVDGELLVKASVESFGLEDEKYWFLVCCELSNGKTRQLKRYYQDFYDLQVQLLDAFPAEAGKLRDAGGQWSKRIMPYIPGPVPYVTNSITKKRKEDLNIYVADLVNLPDYISRSEMVHSLFVVLNNGFDREFERDENQNNIKTLQENDTATFATASQTSNFASTNQDNTLTGEDLKLNKKLSDLSLSGSKQAPAQSTSGLKTTKIKFYYKDDIFALMLKGDTTYKELRSKIAPRIDTDNFKLQTKLFDGSGEEIKTDSQVSNIIQAKLKISVHDI
B1: binds.
